Assay results from PMC3126750.
Each block holds one molecule with its values, some of them ahead of it.

How the values were obtained:
[1] = biological target: 26S proteasome from rpn13Δ cells (Rpn11-Flag) (S. cerevisiae) (UniProt P38764); test: affinity purification with mass spectrometry; SILAC: rpn13Δ cells heavy, rpn13Δ rpn1-D517A cells light, mixed 1:1 before lysis; proteasomes purified on anti-Flag resin, eluted in 8 M urea
Rad23 = Rad23 (UniProt P32628); test: anti-Flag affinity purification of 26S proteasome, immunoblot densitometry; settings: no detergent in binding; normalized to Rpn11FLAG; parent: est. 100; read off a plot
Ddi1 = Ddi1 (UniProt P40087); test: as above; settings: no detergent in binding; normalized to Rpn11FLAG; parent: est. 100; read off a plot
Dsk2 = Dsk2 (UniProt P48510); test: as above; settings: no detergent in binding; normalized to Rpn11FLAG; parent: est. 100; read off a plot
Ubp6 = Ubp6 (UniProt P43593); test: as above; settings: no detergent in binding; normalized to Rpn11FLAG; parent: est. 100; read off a plot

Chain of UniProt P38764 (P38764 whole entry, looked up, stated change not applied): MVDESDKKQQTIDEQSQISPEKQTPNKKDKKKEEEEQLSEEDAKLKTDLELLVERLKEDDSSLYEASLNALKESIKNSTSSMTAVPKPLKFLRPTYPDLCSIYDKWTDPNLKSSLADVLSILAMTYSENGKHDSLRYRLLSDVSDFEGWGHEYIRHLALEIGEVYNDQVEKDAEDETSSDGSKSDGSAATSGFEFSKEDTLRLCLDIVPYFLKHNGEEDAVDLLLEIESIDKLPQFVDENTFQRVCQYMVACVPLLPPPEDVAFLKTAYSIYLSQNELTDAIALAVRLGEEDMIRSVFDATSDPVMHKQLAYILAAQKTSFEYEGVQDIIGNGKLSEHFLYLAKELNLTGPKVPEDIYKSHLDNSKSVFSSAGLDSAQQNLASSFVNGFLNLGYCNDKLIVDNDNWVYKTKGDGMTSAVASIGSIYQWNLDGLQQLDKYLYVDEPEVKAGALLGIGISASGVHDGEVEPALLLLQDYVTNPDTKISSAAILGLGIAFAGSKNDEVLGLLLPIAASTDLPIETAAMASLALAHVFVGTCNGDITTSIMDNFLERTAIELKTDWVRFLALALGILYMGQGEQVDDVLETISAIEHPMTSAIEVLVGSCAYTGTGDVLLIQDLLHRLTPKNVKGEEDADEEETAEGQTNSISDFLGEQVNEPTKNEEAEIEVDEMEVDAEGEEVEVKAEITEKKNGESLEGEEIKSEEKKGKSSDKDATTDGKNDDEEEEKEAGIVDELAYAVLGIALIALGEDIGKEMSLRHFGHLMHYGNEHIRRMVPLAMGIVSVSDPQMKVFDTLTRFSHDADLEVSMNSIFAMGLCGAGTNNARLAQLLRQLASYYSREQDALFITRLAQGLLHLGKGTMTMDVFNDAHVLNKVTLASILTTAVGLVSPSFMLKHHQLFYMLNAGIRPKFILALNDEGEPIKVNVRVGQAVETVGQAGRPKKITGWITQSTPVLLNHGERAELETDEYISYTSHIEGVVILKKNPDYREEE
Chain of UniProt P48510 (P48510 whole entry, looked up): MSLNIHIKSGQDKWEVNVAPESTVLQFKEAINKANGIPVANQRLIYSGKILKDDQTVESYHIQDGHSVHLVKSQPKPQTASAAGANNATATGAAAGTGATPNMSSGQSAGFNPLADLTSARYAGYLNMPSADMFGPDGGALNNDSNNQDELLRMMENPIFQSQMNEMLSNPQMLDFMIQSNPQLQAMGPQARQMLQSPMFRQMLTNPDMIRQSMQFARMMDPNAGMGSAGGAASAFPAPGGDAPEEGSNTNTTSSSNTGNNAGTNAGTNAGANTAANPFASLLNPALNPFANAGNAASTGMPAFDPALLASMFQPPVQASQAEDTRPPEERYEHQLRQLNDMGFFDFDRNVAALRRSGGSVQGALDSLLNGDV
Chain of UniProt P40087 (P40087 whole entry, looked up): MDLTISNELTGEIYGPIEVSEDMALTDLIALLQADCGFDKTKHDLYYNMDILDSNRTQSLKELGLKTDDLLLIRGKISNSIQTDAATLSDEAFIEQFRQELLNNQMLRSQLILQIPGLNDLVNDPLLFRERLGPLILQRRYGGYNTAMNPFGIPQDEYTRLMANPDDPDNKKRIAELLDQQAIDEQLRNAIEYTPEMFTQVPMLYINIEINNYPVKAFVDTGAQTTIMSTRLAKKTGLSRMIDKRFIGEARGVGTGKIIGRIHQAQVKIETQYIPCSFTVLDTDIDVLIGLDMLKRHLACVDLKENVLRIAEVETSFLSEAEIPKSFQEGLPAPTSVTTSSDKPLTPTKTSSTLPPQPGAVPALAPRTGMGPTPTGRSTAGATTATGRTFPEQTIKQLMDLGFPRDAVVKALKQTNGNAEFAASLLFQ

Molecule: Ubp6 (from UniProt P43593 1-499) (enzyme)
SILAC H/L ratio (rpn13Δ proteasomes, heavy, over rpn13Δ rpn1-D517A proteasomes, light) [1]: 0.98

Molecule: 26S proteasome from rpn13Δ cells (Rpn11-Flag) (from UniProt P38764;P43588) K484A
percent of parent (% Protein Relative to WT) (Rad23): 95
percent of parent (% Protein Relative to WT) (Ddi1): 80
percent of parent (% Protein Relative to WT) (Dsk2): 86
percent of parent (% Protein Relative to WT) (Ubp6): 110

More lines, now with the values ahead:

percent of parent (% Protein Relative to WT) (Rad23): 76
percent of parent (% Protein Relative to WT) (Ddi1): 29
percent of parent (% Protein Relative to WT) (Dsk2): 61
percent of parent (% Protein Relative to WT) (Ubp6): 110
Molecule: 26S proteasome from rpn13Δ cells (Rpn11-Flag) (from UniProt P38764;P43588) D517A

SILAC H/L ratio (rpn13Δ proteasomes, heavy, over rpn13Δ rpn1-D517A proteasomes, light) [1]: 0.9
B1: Rad23 (natural protein)
chain: MVSLTFKNFKKEKVPLDLEPSNTILETKTKLAQSISCEESQIKLIYSGKVLQDSKTVSECGLKDGDQVVFMVSQKKSTKTKVTEPPIAPESATTPGRENSTEASPSTDASAAPAATAPEGSQPQEEQTATTERTESASTPGFVVGTERNETIERIMEMGYQREEVERALRAAFNNPDRAVEYLLMGIPENLRQPEPQQQTAAAAEQPSTAATTAEQPAEDDLFAQAAQGGNASSGALGTTGGATDAAQGGPPGSIGLTVEDLLSLRQVVSGNPEALAPLLENISARYPQLREHIMANPEVFVSMLLEAVGDNMQDVMEGADDMVEGEDIEVTGEAAAAGLGQGEGEGSFQVDYTPEDDQAISRLCELGFERDLVIQVYFACDKNEEAAANILFSDHAD
